In patent US20100173362A1 (published 2010):

What follows are binders tested against recombinant human HGF (R&D Systems, Catalog No. 294-HGN-025) (human, UniProt P14210 32-728) (assay: SPR).
Chain of recombinant human HGF (R&D Systems, Catalog No. 294-HGN-025) (P14210 32-728): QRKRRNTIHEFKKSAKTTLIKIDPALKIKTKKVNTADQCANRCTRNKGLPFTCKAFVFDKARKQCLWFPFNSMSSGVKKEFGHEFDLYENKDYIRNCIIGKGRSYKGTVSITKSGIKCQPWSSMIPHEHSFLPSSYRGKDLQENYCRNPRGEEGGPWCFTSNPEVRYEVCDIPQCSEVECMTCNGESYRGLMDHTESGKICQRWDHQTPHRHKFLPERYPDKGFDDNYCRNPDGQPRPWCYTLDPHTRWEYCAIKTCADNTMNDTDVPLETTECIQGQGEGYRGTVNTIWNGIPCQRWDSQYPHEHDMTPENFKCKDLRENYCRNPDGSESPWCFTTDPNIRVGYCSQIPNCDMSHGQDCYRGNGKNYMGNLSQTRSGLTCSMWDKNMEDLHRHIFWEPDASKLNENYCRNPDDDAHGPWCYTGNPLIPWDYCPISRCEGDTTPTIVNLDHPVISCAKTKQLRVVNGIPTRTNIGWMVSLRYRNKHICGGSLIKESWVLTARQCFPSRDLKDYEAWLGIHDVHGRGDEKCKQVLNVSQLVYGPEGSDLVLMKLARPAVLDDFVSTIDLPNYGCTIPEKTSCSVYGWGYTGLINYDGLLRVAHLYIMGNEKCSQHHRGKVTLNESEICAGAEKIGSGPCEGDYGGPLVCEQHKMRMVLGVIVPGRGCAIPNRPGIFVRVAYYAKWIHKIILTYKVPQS

Binder | Kd [nM]
Chimeric 2B8 / Hu2B8_Hv1-f.1 (antibody, V domains shown) VH: EVQLVQSGAEVKKPGATVKISCKVSGYTFTTYWMHWVQQAPGKGLEWMGEINPTNGHTNYNEKFQGRVTITADTSTDTAYMELSSLRSEDTAVYYCATNYVGSIFDYWGQGTLVTVSS VL: NIVMTQSPKSMSMSVGERVTLSCKASENVVSYVSWYQQKPAQSPKLLIYGASNRNTGVPDRFTGSGSATDFTLTISSVRAEDLADYHCGQSYNYPYTFGGGTRLEIKR | 0.662
Hu2B8_Kv1-39.1 / Hu2B8_Hv1-f.1 (antibody, V domains shown) VH: EVQLVQSGAEVKKPGATVKISCKVSGYTFTTYWMHWVQQAPGKGLEWMGEINPTNGHTNYNEKFQGRVTITADTSTDTAYMELSSLRSEDTAVYYCATNYVGSIFDYWGQGTLVTVSS VL: DIQMTQSPSSLSASVGDRVTITCKASENVVSYVSWYQQKPGKAPKLLIYGASNRNTGVPSRFSGSGSGTDFTLTISSLQPEDFATYYCGQSYNYPYTFGQGTKLEIKR | 0.294
Hu2B8_Kv1-39.1 / Chimeric 2B8 (antibody, V domains shown) VH: QVQLQQPGAELVKPGTSVKLSCKASGYTFTTYWMHWVNQRPGQGLEWIGEINPTNGHTNYNEKFKSKATLTVDKSSSTAYMQLSSLTSEDSAVYYCARNYVGSIFDYWGQGTTLTVSS VL: DIQMTQSPSSLSASVGDRVTITCKASENVVSYVSWYQQKPGKAPKLLIYGASNRNTGVPSRFSGSGSGTDFTLTISSLQPEDFATYYCGQSYNYPYTFGQGTKLEIKR | 0.0136
Hu2B8_Kv3-15.1 / Chimeric 2B8 (antibody, V domains shown) VH: QVQLQQPGAELVKPGTSVKLSCKASGYTFTTYWMHWVNQRPGQGLEWIGEINPTNGHTNYNEKFKSKATLTVDKSSSTAYMQLSSLTSEDSAVYYCARNYVGSIFDYWGQGTTLTVSS VL: EIVMTQSPATLSVSPGERATLSCKASENVVSYVSWYQQKPGQAPRLLIYGASNRNTGIPARFSGSGSGTEFTLTISSLQSEDFAVYYCGQSYNYPYTFGQGTKLEIKR | 0.0055
chimeric 2B8 (antibody, V domains shown) VH: QVQLQQPGAELVKPGTSVKLSCKASGYTFTTYWMHWVNQRPGQGLEWIGEINPTNGHTNYNEKFKSKATLTVDKSSSTAYMQLSSLTSEDSAVYYCARNYVGSIFDYWGQGTTLTVSS VL: NIVMTQSPKSMSMSVGERVTLSCKASENVVSYVSWYQQKPAQSPKLLIYGASNRNTGVPDRFTGSGSATDFTLTISSVRAEDLADYHCGQSYNYPYTFGGGTRLEIKR | 0.0116
Chimeric 2B8 / Hu2B8_Hv5-a.1 (antibody, V domains shown) VH: EVQLVQSGAEVKKPGESLRISCKGSGYSFTTYWMHWVRQMPGKGLEWMGEINPTNGHTNYNPSFQGHVTISADKSISTAYLQWSSLKASDTAMYYCARNYVGSIFDYWGQGTLVTVSS VL: NIVMTQSPKSMSMSVGERVTLSCKASENVVSYVSWYQQKPAQSPKLLIYGASNRNTGVPDRFTGSGSATDFTLTISSVRAEDLADYHCGQSYNYPYTFGGGTRLEIKR | 0.0044
Hu2B8_Kv3-15.1 / Hu2B8_Hv1-f.1 (antibody, V domains shown) VH: EVQLVQSGAEVKKPGATVKISCKVSGYTFTTYWMHWVQQAPGKGLEWMGEINPTNGHTNYNEKFQGRVTITADTSTDTAYMELSSLRSEDTAVYYCATNYVGSIFDYWGQGTLVTVSS VL: EIVMTQSPATLSVSPGERATLSCKASENVVSYVSWYQQKPGQAPRLLIYGASNRNTGIPARFSGSGSGTEFTLTISSLQSEDFAVYYCGQSYNYPYTFGQGTKLEIKR | 0.466
Hu2B8_Kv1-39.1 / Hu2B8_Hv5-a.1 (antibody, V domains shown) VH: EVQLVQSGAEVKKPGESLRISCKGSGYSFTTYWMHWVRQMPGKGLEWMGEINPTNGHTNYNPSFQGHVTISADKSISTAYLQWSSLKASDTAMYYCARNYVGSIFDYWGQGTLVTVSS VL: DIQMTQSPSSLSASVGDRVTITCKASENVVSYVSWYQQKPGKAPKLLIYGASNRNTGVPSRFSGSGSGTDFTLTISSLQPEDFATYYCGQSYNYPYTFGQGTKLEIKR | 0.0147
Hu2B8_Kv3-15.1 / Hu2B8_Hv5-a.1 (antibody, V domains shown) VH: EVQLVQSGAEVKKPGESLRISCKGSGYSFTTYWMHWVRQMPGKGLEWMGEINPTNGHTNYNPSFQGHVTISADKSISTAYLQWSSLKASDTAMYYCARNYVGSIFDYWGQGTLVTVSS VL: EIVMTQSPATLSVSPGERATLSCKASENVVSYVSWYQQKPGQAPRLLIYGASNRNTGIPARFSGSGSGTEFTLTISSLQSEDFAVYYCGQSYNYPYTFGQGTKLEIKR | 0.0269
